# From patent publication US20060024786A1, “WASP and N-WASP constructs and methods of expressing such constructs” (Cytokinetics, Inc., priority 2004, published 2006)
# Columns and labels:
# Test in all cases: cell-based or functional assay
# [1] = target: full length human N-WASP (Myc-N-WASP-TAP) (human)
# [2] = target: full length human WASP (Myc-WASP-TAP) (human)
# Arp2/3 complex (human) = Arp2/3 complex (human) (UniProt P61158)
Substance,Barbed ends % of max. (after subtracting baseline) [1] [%],"Barbed ends, nM (pyrene-actin polymerization assay) [1] [nM]","EC50, nM (activation of actin polymerization) [1] [nM]",Barbed ends % of max. (after subtracting baseline) [2] [%],"Barbed ends, nM (pyrene-actin polymerization assay) [2] [nM]","EC50, nM (activation of actin polymerization) [2] [nM]","activity relative to 105 WASP (actin polymerization, EC50 comparison) (Arp2/3 complex (human)) [times]","concentration giving maximal barbed ends (500 nM Cdc42, 2.5 nM Arp2/3, 3.5 uM actin) (Arp2/3 complex (human)) [nM]","potency relative to the VCA/WA domain (actin polymerization, EC50 comparison) (Arp2/3 complex (human)) [times]"
GST_NCK2,78,3.5,7,50,2.6,12,–,–,–
full length human WASP (Myc-WASP-TAP),–,–,–,–,–,–,20,3,> 70
N_GST_tev_Cdc42 GTP (bacterial GST tagged Cdc42 protein) (enzyme),–,–,287,–,–,16,–,–,–
